T1: fHbp m001767 (Neisseria meningitidis fHbp v3.28, …, point mutant)
T1 chain: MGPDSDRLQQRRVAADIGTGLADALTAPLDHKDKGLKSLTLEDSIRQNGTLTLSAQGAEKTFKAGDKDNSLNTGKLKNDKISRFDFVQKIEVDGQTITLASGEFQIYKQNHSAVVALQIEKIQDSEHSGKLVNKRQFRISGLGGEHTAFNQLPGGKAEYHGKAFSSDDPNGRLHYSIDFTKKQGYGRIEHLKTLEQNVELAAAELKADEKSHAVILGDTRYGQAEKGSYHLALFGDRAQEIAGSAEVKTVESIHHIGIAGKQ

T2: fHbp m002334 (Neisseria meningitidis, engineered fHbp …, chimera)
T2 chain: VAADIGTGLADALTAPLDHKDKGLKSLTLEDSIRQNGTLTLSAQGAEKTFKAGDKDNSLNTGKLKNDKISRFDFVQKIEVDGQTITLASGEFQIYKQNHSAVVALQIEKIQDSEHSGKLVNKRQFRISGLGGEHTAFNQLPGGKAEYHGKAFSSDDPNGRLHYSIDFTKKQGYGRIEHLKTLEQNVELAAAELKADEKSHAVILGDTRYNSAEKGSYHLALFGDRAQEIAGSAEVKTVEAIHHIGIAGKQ

T3: fHbp m001832 (Neisseria meningitidis fHbp v3.28, …, chimera)
T3 chain: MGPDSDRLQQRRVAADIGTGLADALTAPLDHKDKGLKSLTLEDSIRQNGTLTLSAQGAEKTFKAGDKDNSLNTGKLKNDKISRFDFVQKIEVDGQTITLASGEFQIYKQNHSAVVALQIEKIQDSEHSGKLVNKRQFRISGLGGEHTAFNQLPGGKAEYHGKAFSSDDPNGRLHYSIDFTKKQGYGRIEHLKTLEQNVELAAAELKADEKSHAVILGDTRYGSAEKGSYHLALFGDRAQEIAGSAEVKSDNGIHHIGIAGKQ

T4: fHbp m001608 (Neisseria meningitidis, fHbp …, point mutant)
T4 chain: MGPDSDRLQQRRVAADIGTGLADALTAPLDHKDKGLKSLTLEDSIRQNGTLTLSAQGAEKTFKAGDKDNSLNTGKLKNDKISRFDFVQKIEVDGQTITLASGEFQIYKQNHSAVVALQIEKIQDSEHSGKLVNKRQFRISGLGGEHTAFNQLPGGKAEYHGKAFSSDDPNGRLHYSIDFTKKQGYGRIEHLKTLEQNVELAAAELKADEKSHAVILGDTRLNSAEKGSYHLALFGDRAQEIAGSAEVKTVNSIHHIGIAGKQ

B1: chimeric antibody h12C1 (antibody, V domains shown)
VH: QVQLQESGPELVKPGASVKISCKASGYSFSDYNMSWVKQSNGKSLEWIGIIDPKYGTINYNQKFKGKATLTVDQASSTAYMQLNSLTSEDSAVYYCVRDYYGSSYFDYWGQGTTLTVSS
VL: DIVLTQSPSSIYASLGERVTLTCKASQDIHNYLNWFQQKPGKSPKTLIYRANRLVDGVPSRFSGGGSGQDYSLTISSLEFEDIGIYYCLQYDEFPPTFGGGTRLEIK
notes: also called humanized 12C1; source: Expi293, purified (MabSelect SuRe, SEC); copies: 2 + 2
B2: mAb 1E6 (human) (antibody, V domains shown)
VH: EVQLVQSGAEVKKPGSSVKVSCKASGGTVIDYPITWVRQAPGQGLEWVGGFVPLFRTSNYGQKFQGRVTITADKSTSTASMELNSLTSEDTAIYYCARGDTAMGPFDYWGQGTLVTVSS
VL: SYVLTQPPSLSVAPGKTATLTCGGNNIAGKTVHWYQQRPGQAPVLVISYDSDRPSGIPERFSGSNSANTATLTISRVEAGDEADYYCQVWDRNSDHWVFGGGTKLTVL
notes: source: Expi293, purified (MabSelect SuRe, SEC); copies: 2 + 2

Columns and labels:
Experiment in all cases: BLI
Conditions in all cases: both partners purified
[1] = biological target: T5, factor H binding protein variant 1.1 (Neisseria meningitidis serogroup B …, UniProt Q9JXV4)
T5 construct: also called fHbp v1.1; v1.1 Control (0001)

fHbp m001767 = biological target: T1, fHbp m001767
fHbp m002334 = biological target: T2, fHbp m002334
fHbp m001832 = biological target: T3, fHbp m001832
fHbp m001608 = biological target: T4, fHbp m001608

Binder | Kd [1] [nM] | koff [1] [s⁻¹] | kon [1] [M⁻¹ s⁻¹] | Kd (fHbp m001767) [nM] | koff (fHbp m001767) [s⁻¹] | kon (fHbp m001767) [M⁻¹ s⁻¹] | Kd (fHbp m002334) [nM] | koff (fHbp m002334) [s⁻¹] | kon (fHbp m002334) [M⁻¹ s⁻¹] | Kd (fHbp m001832) [nM] | koff (fHbp m001832) [s⁻¹] | kon (fHbp m001832) [M⁻¹ s⁻¹] | Kd (fHbp m001608) [nM] | koff (fHbp m001608) [s⁻¹] | kon (fHbp m001608) [M⁻¹ s⁻¹]
B1 | 0.391 | 0.000273 | 697400 ± 1920 |  |  |  |  |  |  |  |  |  |  |  | 
B2 |  |  |  | 0.131 | 4.68e-05 | 358200 ± 2140 | 0.844 | 0.000101 | 119300 ± 930 | 0.435 | 0.00016 | 367800 ± 1240 | 0.154 | 8.28e-05 | 537900 ± 1940

— article PMC12319226 (Frontiers in Bioinformatics, 2025)
